Key:
purified protein [1] = substrate: NC(=O)C1=CN([C@@H]2O[C@H](COP(=O)(O)OP(=O)(O)OC[C@H]3O[C@@H](n4cnc5c(N)ncnc54)[C@H](OP(=O)(O)O)[C@@H]3O)[C@@H](O)[C@H]2O)C=CC1; assay: purified protein; format: biochemical, Burkholderia gladioli; details: apparent, COBE (ethyl 4-chloro-3-oxobutanoate) 50 mM, NADPH 0.01-0.5 mM, pH 6.5, 40 °C, varied: cofactor
purified protein [2] = substrate: NC(=O)C1=CN([C@@H]2O[C@H](COP(=O)(O)OP(=O)(O)OC[C@H]3O[C@@H](n4cnc5c(N)ncnc54)[C@H](O)[C@@H]3O)[C@@H](O)[C@H]2O)C=CC1; assay: purified protein; format: biochemical, Burkholderia gladioli; details: apparent, COBE (ethyl 4-chloro-3-oxobutanoate) 50 mM, NADH 0.01-0.5 mM, pH 6.5, 40 °C, varied: cofactor

B1: BgADH3 (Burkholderia gladioli BSR3) (protein)
chain: MSETNSRRDFLRHAAAGTAGVAVAAVPGIAAAADGAPDAMPPLARMRNPHDLYPRAPFARQVQPVPGLASKMVPRPDHGETSYRGSNRLAGRKALVTGGDSGIGRAAAIAFAREGADVAINYLPVEESDAREVVALIRKEGRKCVAIPGDIRTEAFCRQLVERAVAELGGLDVLVSNAGHQQARDDIQDISSEQFEQTMKTNVYAPFWIAKAALPHMPAGSSVILTTSEQAFLPSANLLDYAPTKAANIAFVKALAKQQAPRGIRVNAVAPGATWTPLQTSGGQPPEVIDRFGQDNPTGRPAQPVELAPLYVTLASAESSFSSGQVFGANGATGAA
- Km (purified protein [1]): 81 µM
- Vmax (purified protein [1]): 9.1 µmol/min/mg
- kcat (purified protein [1]): 10.6 s⁻¹
- kcat/Km (purified protein [1]): 131000 M⁻¹ s⁻¹
- Km (purified protein [2]): 58 µM
- Vmax (purified protein [2]): 3.4 µmol/min/mg
- kcat (purified protein [2]): 3.97 s⁻¹
- kcat/Km (purified protein [2]): 68300 M⁻¹ s⁻¹

Reference: article PMC5070160, “Efficient biosynthesis of ethyl (R)-4-chloro-3-hydroxybutyrate using a stereoselective carbonyl reductase from Burkholderia gladioli” (BMC Biotechnology, 2016)
